Measurements taken from PMC7090004, “IL28A protein homotetramer structure is required for autolysosomal degradation of HCV-NS5A in vitro” (Cell Death & Disease, 2020).

B1: Interferon lambda-2 (IL28A), wild type (natural protein, human, UniProt Q8IZJ0 26-200, looked up)
chain: VPVARLHGALPDARGCHIAQFKSLSPQELQAFKRAKDALEESLLLKDCRCHSRLFPRTWDLRQLQVRERPMALEAELALTLKVLEATADTDPALVDVLDQPLHTLHHILSQFRACIQPQPTAGPRTRGRLHHWLYRLQEAPKKESPGCLEASVTFNLFRLLTRDLNCVASGDLCV
notes: also called WT IL28A; IL28A overexpression construct

Columns and labels:
Flag-IL28A-D0 (human) = Flag-IL28A-D0 (human) (UniProt Q8IZJ0); assay: SDS-PAGE and Western blot (band of about 70 kDa)
[1] = target: the molecule itself; assay: SDS-PAGE and Western blot (tetramer and monomer bands)

Row | Molecule | stoichiometry N (Flag-IL28A-D0 (human)) | stoichiometry N [1]
1 | Flag-IL28A-D0 (from UniProt Q8IZJ0 26-200) (natural protein) | 4 | –
2 | B1 | – | 4
